The values below come from US20220119468A1, “AMYLOID PEPTIDE VARIANTS” (published 2022).

The target of the test is T1, human Islet Amyloid Polypeptide (human).
T1 peptide: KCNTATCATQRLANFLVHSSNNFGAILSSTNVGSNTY
The test is described as follows: cell-based or functional assay.
For KCNTATCVTQRLANFLLRSSNNLGAILSPTNVGSNTY [raccoon IAPP], the “cell viability of RIN-m cells (MTT viability assay)” value (from here on “cell viability of RIN-m cells”) is 72 % cell viability.
KCNTATCATQRLANFLIRSSNNLGAILSPTNVGSNTY [cat IAPP]: the “cell viability of RIN-m cells” value is about 62 % cell viability.
With KCNTATCATQRLANFLVRSSNNLGAILSPTNVGSNTY [seal IAPP], the “cell viability of RIN-m cells” value is about 62 % cell viability.
In the case of KCNTATCVTQRLADFLVRSSSNIGAIYSPTNVGSNTY [chicken IAPP], the “cell viability of RIN-m cells” value turned out to be 76 % cell viability.
